Assay results: the DeepSol protein solubility set

Test: soluble on expression in E. coli; label from the status in PepcDB or PDB records

Q: Which “soluble on expression in E. coli” value does the source give for “MGYRIEMATRNPFDIDHKSKYLREAALEANLSHPETTPTMLTCPIDSGFLKDPVITPEGFVYNKSSILKWLETKKEDPQSRKPLTAKDLQPFPELLIIVNRFVETQTNYEKLKNRLVQNARVAARQKEYTEIPDIFLCPISKTLIKTPVITAQGKVYDQEALSNFLIATGNKDETGKKLSIDDVVVFDELYQQIKVYNFYRKREMQKNQIQPSVSSGFGFFSLNFLTSWLWGTEEKKEKTSSDMTY” here?
A: not soluble

Q: Which “soluble on expression in E. coli” value does the source give for “MGSDKIHHHHHHCDETELDQTVTNQVNPQKEEDSRIVFNSAKEFYNTLDTLSYMTYEEQTEWIRASGIKYPLYKDLEFCEDEIMTEMPRAFQALFNHKMEMQINDTVIAFEKGNMYVKSIKEKILPVPVLYGQVGVNQEESEVTTRTVYETKYGKIGTSYQYEFKIPEGKSKYKYVHELKSVIIKENLPPYKSWSNLFLVLKLEWKGKKKWKVAEKEERNISIDLNVCKRNLAKVKYNQEIRIDVQNMDSKSHSINIEGYIIHEVVGIPSTKMFNGWSYPLVEWQPR” here?
A: not soluble

Q: Which “soluble on expression in E. coli” value does the source give for “MKIAHISDLHVKCEWYEDRLGNNLVKYLNAQKPDLLIITGDLTDYGYYAEYKRAYSFLELIEVEKRVVVPGNHDARNEGYELFEEFFGTRMPYYEDEYMVIIGMDSSLPDREEGHIGRKGYKFLRETLKDKGDKLKIVALHHHVVPIPATGSDLAILTDAGNLMKVVDELGVELVLTGHKHKAWVWKLNETYYVTAGTATTRRLKAKDYPSFYMLYLEDEKNIRMEKVNTETLKVEEVYTLNFEEGKER” here?
A: not soluble

Q: For “MSDQPRPTVIITGASSGVGLYATKALANRGWHVIMACRNLEKAEQAAKNLQIPPEAYTILHLDLSSLASVRGFVESFRALNRPLRALVCNAAVYYPLLKEPIYSVDGYEITVATNHLGHFLLINLLLEDLKNSPESDKRLVILGTVTANRKELGGKIPIPAPPDLGNLEGFEKGFKKPIAMINGKPFKSGKAYKDSKLCNMLTARELHRRFHESTGIVFNSLYPGCVADTPLFRHHFPLFQKLFPLFQKKITGGYVSQELAGERVAMVVADPEFRQSGVHWSWGLEHHHHHH”, which “soluble on expression in E. coli” value is on record?
A: soluble

Q: For “MSLAQPCAIIDLETTGGNIARDRITEVGMVLIDGERVERLSWLVNPGQPIPPFIENMTGISNEMVAGAPPFSAQADELLDRLQGRLLLAHNARFDYGFLKNEFRRHGLRFQARALCTVKLSRRLYPQHFKHSLDSLIARHGIDMPERHRALADAEAVYRFIRIAEAELGEDRVAHEAAQLLSQPAELSSLPAELQQQIEEGHHHHHH”, which “soluble on expression in E. coli” value is on record?
A: not soluble

Q: For “MGSDKIHHHHHHMKSRFYRPLSLASVSPSYFPEIALYVRNSGNYILYKNHDRQFTEEDRHRLERTNTSFLYVRSGDMDAVTEYLEQNLDTLLARDDIDSNAKGTILYQTAANYVTDVFDEPGKTADIIRCRSLIRHLMKYVAGHEDALKALQAITSQNYYIFTHSVQVAALMMLVHDRLFRLNQDEMIDVGIGSLLHDVGMVFLSGQLLDKPDALAAIEYHKAKQHAQKGYEHLQSAGTLSEVSLTIVRHHHEKYDGSGYPAGLKGDDIPRSAQLAALCDTYCAMTTDRPKHTALPGAEALRIMEDEVGGAFSPDLFYRFADVVKGKGKA”, which “soluble on expression in E. coli” value is on record?
A: not soluble

Q: Which “soluble on expression in E. coli” value does the source give for “MNNILNQIKKEVNMDLLNGLWPGFKRAAFALYDDEHVYVFHHPLFLKDNDEYRVLKWEEQFKGDTCILFKDYPTAIVNMNRYKDYASLLAIVVHELFHCYQYLNKESRFPNESLGFQYPIIEENIQLRNKERICLYDAVHCKSQAEKNNYIKQFIELREQRASVMGEAFITYEYMVESIEGPAWYVEMNAYNTVCKSDESDTLRKYSGLILDVYDANCNMRKSCYSSGMLLCLLLDEILPEWKISFFNSDKSLYAFLKQNINVDLSLNNEITISKETKQILHFVQNERDKEIKQFYGEEGYDLYIVGDIKLNSFNPMNVKLNGNKVLHKTFLSVSIHNKTYMINQPVLASFEEDFKNMTQVHIIMNEKPIETKNG” here?
A: not soluble

Q: Which “soluble on expression in E. coli” value does the source give for “MRGSHHHHHHGSASFLKKTMPFKTTIEGTVNGHYFKCTGKGEGNPFEGTQEMKIEVIEGGPLPFAFHILSTSCMYGSKTFIKYVSGIPDYFKQSFPEGFTWERTTTYEDGGFLTAHQDTSLDGDCLVYKVKILGNNFPADGPVMQNKAGRWEPGTEIVYEVDGVLRGQSLMALKCPGGRHLTCHLHTTYRSKKPASALKMPGFHFEDHRIEIMEEVEKGKCYKQYEAAVGRYCDAAPSKLGHN” here?
A: soluble

Q: With “MSNFLDLQKQRRSIYALGKTVDLSKAELVALIQNAIKQAPSAFNSQTSRALVLFGQDSQDFWNKIAYSELEKVTPAEAFAGTKAKLESFAAGVGTILLFEDQAVVRNLEENFPLYAENFQPWSEQAHGIALYAIWLALAEQNIGMSVQHYNPLVDAQVAEKYDLPTNWKMRAQIPFGSIEAPAGEKEFMADQERFKVFGDLEHHHHHH” as the sequence, how does the “soluble on expression in E. coli” value read?
A: soluble
